Measured values from the nanobody polyreactivity screen of Harvey et al. (2022).

Experiment: yeast display, Sf9 membrane polyspecificity reagent, FACS + sequencing; frameworks hold sequencing errors
Summary of the method: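 After 36–48 hours of galactose induction, yeast (Saccharomyces cerevisiae BJ5465) displaying a synthetic nanobody library were stained at 4 °C for 1 hour with 10% biotinylated, detergent-solubilized Sf9 membrane reagent. Streptavidin microbeads enriched the stained cells before FACS sorting into low and high (top ~1%) gates on anti-HA and streptavidin fluorescence. Each clone's polyreactivity label reflects its gate of origin.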

Sequence	polyreactivity (PSR sort gate)
QVQLVESGGGLVQAGGSLRLSCAASGRIFYSYAMGWYRQAPGKERELVATITRRGSSTYYADSVKGRFTISRDNAKNTVYLQMNSLKPEDTAVYYCNAVGVRRAIGYPSQTEYGYWGQGTQVTVSS	high polyreactivity
QVQLVESGGGLVQAGGSLRLSCAASGRIFYSYGMGWYRQAPGKERELVASITISGGGSTYYADSVKGRFTISRDNAKNTVYLQMNSLKPEDTAVYYCAATRTVWKYIYDYWGQGTQVTVSS	high polyreactivity
QVQLVESGGGLVQAGGSLRLSCAASGRIFYTNAMGWYRQAPGKERELVAVISWGGDTTYYADSVKGRFTISRDNATNTVYLQMNSLKPEDTAVYYCNADWGPTYEIYDSWGQGTQVTVSS	low polyreactivity
QVQLVESGGGLVQAGGSLRLSCAASGRIFYTYAMGWYRQAPGKERELVAAINRSGSSTYYADSVKGRFTISRDNAKNTVYLQMNSLKPEDTAVYYCNAQSYRYYGWVLTDVDYWGQGTQVTVSS	low polyreactivity
QVQLVESGGGLVQAGGSLRLSCAASGRIFYTYAMGWYRRAPGKERELVAAIRISGVRTYYADSVKGRFTISRDNAKNTVYLQMNSLKPEDTAVYYCAADSYGDRMDYWGQGTQVTVSS	high polyreactivity
QVQLVESGGGLVQAGGSLRLSCAASGRIFYTYAMGWYRTAPGKERELVAAISSRTGSTYYADSVKWRFTISRDNAKNTVYLQMNSLKPEDTAVYYCNAYRLRYGYDYWGQGTQVTVSS	high polyreactivity
QVQLVESGGGLVQAGGSLRLSCAASGRIFYTYVMGWYIQAPGKERELVASISSSGGSTNYADSVKGRFTISRDNAKNTVYLQMNSLKPEDTAVYYCNKDYIHVSYREDYWGQGTQVTVSS	low polyreactivity
QVQLVESGGGLVQAGGSLRLSCAASGRIFYVNAMGWYRQAPGKERELVATIRYSGGSTYYADSVKGRFTISRDNAKNTVYLQMNSLKPEDTAVYYCAARVADYYPGRGYGYWGQGTQVTVSS	high polyreactivity
QVQLVESGGGLVQAGGSLRLSCAASGRIFYVYAMGWYRQAPGKERELVATIDWSGGSTYYADSVKGRFTISRDNAKITVYLQMNSLKPEDTAVYYCAAYYTSYWGYDYDYWGQGTQVTVSS	low polyreactivity
QVQLVESGGGLVQAGGSLRLSCAASGRIFYWNAMGWYRQAHGKERELVAAISWSGGSTYYADSVKGRFTISRDNAKNTVYLQMNSLKPEDTAVYYCAADGGRRTYYVKYDYWGQGTQVTASS	low polyreactivity
QVQLVESGGGLVQAGGSLRLSCAASGRIFYWNAMGWYRQAPGKEREFVAAISWSGGSTYADSVKGRFTISRDNAKNTVYLQMNSLKPEDTAVYYCATRVYRSFRAYDYWGQGTQVTVSS	high polyreactivity
QVQLVESGGGLVQAGGSLRLSCAASGRIFYWNPMGWYRQAHGKERELVAAISWSGGSTYYADSVKGRFTISRDNAKNTVYLQMNRLKPEDTAVYYCARKYRSPISALMTGDYWGQGTQVTVSS	low polyreactivity
QVQLVESGGGLVQAGGSLRLSCAASGRIFYWYGMGWYRQAPGKERELVAGITYSASRTYYADSVKGRFTISRDNVKNTVYLQMNCMKPEVTAVYYCAAGRYHRDDGYDYWGQGTQVTVSS	low polyreactivity
QVQLVESGGGLVQAGGSLRLSCAASGRIFYYAMGWYRQAPGKEREFVAAISGSGGSTNYADSVKGRFTISRDNAKNTVYLQMNSLKPEDTAVYYCNAESWSWGFIYEYEYWGQGTQVTVSW	high polyreactivity
QVQLVESGGGLVQAGGSLRLSCAASGRIFYYNAMGWYRQAPGKERELVAAIRSSGGTTYYADSVKGRFTISRDNAKNTVYLQMNSLKPEDTAVYYCNARYWVYYVYEYDSWGQGTQVTVSS	low polyreactivity
QVQLVESGGGLVQAGGSLRLSCAASGRIFYYNAMGWYRQAPGKERELVAAITFDGGRTYYADSVKGRFTISRDNAKNTVYLQMNSLKPEDTAVYYCAASWYYSDFYMYYWGQGTQVTVSS	high polyreactivity
QVQLVESGGGLVQAGGSLRLSCAASGRIFYYNAMGWYRQAPGKERELVAAITKSSGSTYYADSVKGRFTISRDNAKNTVFLQMNSLKPEDTAVYYCAKDKYLVFGFVGGDYWGQGTQVTVSS	low polyreactivity
